Experimental data: article PMC12560131

Experiments:
[1] = target: Adalimumab–pM440 complex (Mycoplasma genitalium) (UniProt P47523); assay: SPR
[2] = target: Adalimumab–pM440 complex (Mycoplasma genitalium) (UniProt P47523); assay: SPR; single-cycle kinetic titration of TNFα on Adalimumab or on the Adalimumab-pM440 complex
Adalimumab = assay: SPR

Substance | fold decrease in affinity against Adalimumab without pM440 [1] [fold] | koff [1] [s⁻¹] | kon [1] [M⁻¹ s⁻¹] | Kd [2] [nM] | Kd (Adalimumab) [nM]
TNFα (from UniProt P01375 1-233) (ligand) | 3 | 0.00046 | 160000 | 2.94 | –
protein M440 (from UniProt P47523 1-440) (domain or fragment) | – | – | – | – | < 0.15
